How the values were obtained:
[1] = target: rabbit muscle G-actin, biotinylated (rabbit, UniProt P68135 1-377); assay: BLI; settings: both partners purified
[2] = target: rabbit muscle F-actin, biotinylated (rabbit, UniProt P68135 1-377); assay: BLI; settings: both partners purified

B1: Plasmodium falciparum aldolase (enzyme)
chain: MAHCTEYMNAPKKLPADVAEELATTAQKLVQAGKGILAADESTQTIKKRFDNIKLENTIENRASYRDLLFGTKGLGKFISGAILFEETLFQKNEAGVPMVNLLHNENIIPGIKVDKGLVNIPCTDEEKSTQGLDGLAERCKEYYKAGARFAKWRTVLVIDTAKGKPTDLSIHETAWGLARYASICQQNRLVPIVEPEILADGPHSIEVCAVVTQKVLSCVFKALQENGVLLEGALLKPNMVTAGYECTAKTTTQDVGFLTVRTLRRTVPPALPGVVFLSGGQSEEEASVNLNSINALGPHPWALTFSYGRALQASVLNTWQGKKENVAKAREVLLQRAEANSLATYGKYKGGAGGENAGASLYEKKYVY
notes: also called Pf aldolase; recombinant Pf aldolase; source: E. coli BL21 (pGEX-5X), purified, GST tag removed
Kd [1]: 330 nM | Kd [2]: 365 nM
